Biological target: Recombinant Xenopus laevis histone octamer reconstituted into 70N5 mononucleosomes (Xenopus laevis)
Experiment: native gel or EMSA; 70N5 601 nucleosomes with photo-reactive DNA bound with saturating INO80 at 30 C for 30 min; extent of binding on 4% native polyacrylamide gels

percent of nucleosomes bound: > 90%
Substance: Native wild-type Saccharomyces cerevisiae INO80 complex (from UniProt P53115 1-1489; P53946 1-755; P32617 1-166; P40154 1-320; Q12386 1-881; P80428 1-489; P60010 1-375)

Source: article PMC10635376, “New insights into the mechanism and DNA-sequence specificity of INO80 chromatin remodeling” (Research Square, 2023)
